These are literature values, as cited in article PMC3901638.

The target of the data set is PEDF-R (Homo sapiens) (UniProt Q96AD5). The data set is described as follows: Surface Plasmon Resonance.
UniProt Q96AD5, sequence (Q96AD5 whole entry): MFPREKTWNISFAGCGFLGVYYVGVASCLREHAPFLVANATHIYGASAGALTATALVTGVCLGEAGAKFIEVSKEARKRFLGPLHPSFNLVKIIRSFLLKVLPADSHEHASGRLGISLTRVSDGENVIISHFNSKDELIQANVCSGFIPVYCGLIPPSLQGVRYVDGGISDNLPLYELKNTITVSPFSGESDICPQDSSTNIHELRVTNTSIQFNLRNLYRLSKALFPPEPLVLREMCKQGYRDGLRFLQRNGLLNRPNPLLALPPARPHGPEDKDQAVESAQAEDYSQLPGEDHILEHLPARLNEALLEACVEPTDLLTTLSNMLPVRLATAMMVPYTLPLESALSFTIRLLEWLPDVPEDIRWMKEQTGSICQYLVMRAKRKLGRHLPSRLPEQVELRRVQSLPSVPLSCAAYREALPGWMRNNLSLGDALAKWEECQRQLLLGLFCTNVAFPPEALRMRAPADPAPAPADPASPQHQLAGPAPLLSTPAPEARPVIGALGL

Consider PEDF (from UniProt P36955), for which the dissociation constant Kd was 3 nM.
